The text below walks through data of patent US20210388110A1 (published 2021).

As a reminder, the Kd is the equilibrium constant for the complex coming apart. Low values mean a tighter complex, high ones a looser complex.

Positions count from the first letter of the chain named.

The assay concerns the target T1, soluble human CD3ε chain (human, UniProt P07766 23-126, limits assumed).
T1 construct: the text says soluble human CD3ε chain; also called human CD3 epsilon chain
The assay can be described thus: SPR (Biacore). In general terms: In SPR one partner is held on a chip, and binding of the other changes the refractive index at the surface.

T1 sequence (P07766 23-126 limits assumed): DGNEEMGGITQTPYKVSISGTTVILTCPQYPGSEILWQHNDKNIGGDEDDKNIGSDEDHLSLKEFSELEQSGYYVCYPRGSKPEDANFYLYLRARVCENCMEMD

B1: TR01H040-E22Hh/none-Hi-Kn010G3/L0205-k0 (antibody, human IgG1, kappa, L234A L235A, N297A)
heavy: QVQLVESGGGLVQPGRSLRLSCAASGFTFSNAWMHWVRQAPGKGLEWVAQIKDKSQNYATYYAESVKGRFTISRADSKNSIYLQMNSLKTEDTAVYYCRYVHYSASYGVDAWGQGTTVTVSSASTKGPSVFPLAPSSKSTSGGTAALGCLVKDYFPEPVTVSWNSGALTSGVHTFPAVLQSSGLYSLSSVVTVPSSSLGTQTYICNVNHKPSNTKVDKKVEPKSCDKTHTCPPCPAPEAAGGPSVFLFPPKPKDTLMISRTPEVTCVVVDVSHEDPEVKFNWYVDGVEVHNAKTKPREEQYASTYRVVSVLTVLHQDWLNGKEYKCKVSNKALPAPIEKTISKAKGQPREPQVYTLPPSRCELTKNQVSLSCAVKGFYPSDIAVEWESNGQPENNYKTTPPVLDSDGSFFLVSKLTVDKSRWQQGNVFSCSVMHEALHNHYTQKSLSLSPDYKDDDDK
chain: EPKSSDKTHTCPPCPAPELLGGPSVFLFPPKPKDTLMISRTPEVTCVVVDVSHEDPEVKFNWYVDGVEVHNAKTKPREEQYNSTYRVVSVLTVLHQDWLNGKEYKCKVSNKALPAPIEKTISKAKGQPREPQVCTLPPSRDELTKNQVSLWCLVKGFYPSDIAVEWESNGQPENNYKTTPPVLDSDGSFFLYSKLTVDKSRWQQGNVFSCSVMHEALHNRYTQKSLSLSP
light: DIVMTQSPLSLPVTPGEPASISCRSSQSPVHSNRNTYLHWYQQKPGQAPRLLIYKVSNRFWGVPDRFSGSGSGTDFTLKISRVEAEDVGVYYCGQGTQVPYTFGQGTKLEIKRTVAAPSVFIFPPSDEQLKSGTASVVCLLNNFYPREAKVQWKVDNALQSGNSQESVTEQDSKDSTYSLSSTLTLSKADYEKHKVYACEVTHQGLSSPVTKSFNRGEC
notes: single-arm
B1 showed a Kd of 34.2 nM.

B2: TR01H040-E22Hh/none-Hi-Kn010G3/L0209-k0 (antibody, human IgG1, kappa, L234A L235A, N297A)
heavy: B1 heavy
chain: B1 chain
light: B1 light with L38I, W61S, G94Y
notes: single-arm
B2 gave a dissociation constant Kd of 4.25 nM. This Kd lies about 8-fold lower than the previous one.

B3: TR01H040-E22Hh/none-Hi-Kn010G3/L0235-k0 (antibody, human IgG1, kappa, L234A L235A, N297A)
heavy: B1 heavy
chain: B1 chain
light: B1 light with S28E, W61S, G94Y
notes: single-arm
Molecule B3 showed a Kd of 2.81 nM.

B4: TR01H040-E22Hh/none-Hi-Kn010G3/L0236-k0 (antibody, human IgG1, kappa, L234A L235A, N297A)
heavy: B1 heavy
chain: B1 chain
light: B1 light with S28E, G94Y
notes: single-arm
B4 gave an equilibrium dissociation constant (Kd) of 5.64 nM.

B5: TR01H040-E22Hh/none-Hi-Kn010G3/L0219-k0 (antibody, human IgG1, kappa, L234A L235A, N297A)
heavy: B1 heavy
chain: B1 chain
light: B1 light with P29L, L38I, W61R
notes: single-arm
B5 yielded a Kd of 39.4 nM.

B6: TR01H040-E22Hh/none-Hi-Kn010G3/L0215-k0 (antibody, human IgG1, kappa, L234A L235A, N297A)
heavy: B1 heavy
chain: B1 chain
light: B1 light with S28P, L38I, W61S
notes: single-arm
As to B6, the dissociation constant Kd worked out at 33.7 nM.

B7: TR01H040-E22Hh/none-Hi-Kn010G3/L0228-k0 (antibody, human IgG1, kappa, L234A L235A, N297A)
heavy: B1 heavy
chain: B1 chain
light: B1 light with L38I, W61S, G94V
notes: single-arm
Molecule B7 had a Kd of 16 nM.

B8: TR01H040-E22Hh/none-Hi-Kn010G3/L0222-k0 (antibody, human IgG1, kappa, L234A L235A, N297A)
heavy: B1 heavy
chain: B1 chain
light: B1 light with L38I, H39Q, W61S, G94Y
notes: single-arm
The molecule B8 returned a dissociation constant Kd of 46.5 nM.

B9: TR01H040-E22Hh/none-Hi-Kn010G3/L0208-k0 (antibody, human IgG1, kappa, L234A L235A, N297A)
heavy: B1 heavy
chain: B1 chain
light: B1 light with G94Y
notes: single-arm
As for B9, the Kd is 4.16 nM.

B10: TR01H040-E22Hh/none-Hi-Kn010G3/L0223-k0 (antibody, human IgG1, kappa, L234A L235A, N297A)
heavy: B1 heavy
chain: B1 chain
light: B1 light with L38I, F60L, W61S, G94Y
notes: single-arm
With B10, the Kd was found to be 8.15 nM.

B11: TR01H040-E22Hh/none-Hi-Kn010G3/L0206-k0 (antibody, human IgG1, kappa, L234A L235A, N297A)
heavy: B1 heavy
chain: B1 chain
light: B1 light with W61S, G94Y
notes: single-arm
Molecule B11 displayed a Kd of 2.9 nM.

B12: TR01H040-E22Hh/none-Hi-Kn010G3/L0241-k0 (antibody, human IgG1, kappa, L234A L235A, N297A)
heavy: B1 heavy
chain: B1 chain
light: B1 light with Q27E, G94Y
notes: single-arm
Molecule B12 yielded a Kd of 3.48 nM.

B13: TR01H040-E22Hh/none-Hi-Kn010G3/L0240-k0 (antibody, human IgG1, kappa, L234A L235A, N297A)
heavy: B1 heavy
chain: B1 chain
light: B1 light with Q27E, W61S, G94Y
notes: single-arm
B13: binding was put at a Kd of 2.17 nM.

B14: TR01H040-E22Hh/none-Hi-Kn010G3/L0242-k0 (antibody, human IgG1, kappa, L234A L235A, N297A)
heavy: B1 heavy
chain: B1 chain
light: B1 light with Q27E, L38I, W61S, G94Y
notes: single-arm
B14 returned a Kd of 3.58 nM.

B15: TR01H040-E22Hh/none-Hi-Kn010G3/L0234-k0 (antibody, human IgG1, kappa, L234A L235A, N297A)
heavy: B1 heavy
chain: B1 chain
light: B1 light with S28E, W61R
notes: single-arm
As to B15, the Kd was 24 nM.

B16: TR01H040-E22Hh/none-Hi-Kn010G3/L0207-k0 (antibody, human IgG1, kappa, L234A L235A, N297A)
heavy: B1 heavy
chain: B1 chain
light: B1 light with W61R, G94Y
notes: single-arm
In the case of B16, the Kd came out at 2.6 nM.

B17: TR01H040-E22Hh/none-Hi-Kn010G3/L0237-k0 (antibody, human IgG1, kappa, L234A L235A, N297A)
heavy: B1 heavy
chain: B1 chain
light: B1 light with S28E, L38I, W61S, G94Y
notes: single-arm
For the molecule B17, the affinity, expressed as Kd, was 10.2 nM.

B18: TR01H040-E22Hh/none-Hi-Kn010G3/L0250-k0 (antibody, human IgG1, kappa, L234A L235A, N297A)
heavy: B1 heavy
chain: B1 chain
light: B1 light with S25P, L38I, H39Q, W61S, G94I
notes: single-arm
As for B18, the Kd was 21.5 nM.

B19: TR01H040-E22Hh/none-Hi-Kn010G3/L0239-k0 (antibody, human IgG1, kappa, L234A L235A, N297A)
heavy: B1 heavy
chain: B1 chain
light: B1 light with Q27E, W61R
notes: single-arm
For B19, the Kd came to 23.1 nM.

B20: TR01H040-E22Hh/none-Hi-Kn010G3/L0214-k0 (antibody, human IgG1, kappa, L234A L235A, N297A)
heavy: B1 heavy
chain: B1 chain
light: B1 light with S28P, W61R
notes: single-arm
In the case of B20, the Kd turned out to be 20.2 nM.

B21: TR01H040-E22Hh/none-Hi-Kn010G3/L0216-k0 (antibody, human IgG1, kappa, L234A L235A, N297A)
heavy: B1 heavy
chain: B1 chain
light: B1 light with S28P, P29L, W61R
notes: single-arm
On to B21, for which the Kd came to 25.3 nM.

B22: TR01H040-E22Hh/none-Hi-Kn010G3/L0224-k0 (antibody, human IgG1, kappa, L234A L235A, N297A)
heavy: B1 heavy
chain: B1 chain
light: B1 light with L38I, W61P, G94Y
notes: single-arm
B22 showed an equilibrium dissociation constant (Kd) of 5.06 nM.

B23: TR01H040-E22Hh/none-Hi-Kn010G3/L0233-k0 (antibody, human IgG1, kappa, L234A L235A, N297A)
heavy: B1 heavy
chain: B1 chain
light: B1 light with S28E, P29L, W61S
notes: single-arm
Take B23: the Kd is 40.1 nM. Against the preceding molecule, the Kd is about 7.9-fold higher.

B24: TR01H040-E22Hh/none-Hi-Kn010G3/L0220-k0 (antibody, human IgG1, kappa, L234A L235A, N297A)
heavy: B1 heavy
chain: B1 chain
light: B1 light with S28P, P29L, W61R, G94Y
notes: single-arm
B24 showed a Kd of 9.15 nM.

B25: TR01H040-E22Hh/none-Hi-Kn010G3/L0217-k0 (antibody, human IgG1, kappa, L234A L235A, N297A)
heavy: B1 heavy
chain: B1 chain
light: B1 light with S25P, P29L, W61R
notes: single-arm
B25 had a dissociation constant Kd of 20.7 nM.

B26: TR01H040-E22Hh/none-Hi-Kn010G3/L0213-k0 (antibody, human IgG1, kappa, L234A L235A, N297A)
heavy: B1 heavy
chain: B1 chain
light: B1 light with L38I, W61R
notes: single-arm
In turn, B26 came in with a Kd of 20.1 nM.

B27: TR01H040-E22Hh/none-Hi-Kn010G3/L0243-k0 (antibody, human IgG1, kappa, L234A L235A, N297A)
heavy: B1 heavy
chain: B1 chain
light: B1 light with Q27E, S28P, W61R
notes: single-arm
B27 displayed a Kd of 24.6 nM.

B28: TR01H040-E22Hh/none-Hi-Kn010G3/L0231-k0 (antibody, human IgG1, kappa, L234A L235A, N297A)
heavy: B1 heavy
chain: B1 chain
light: B1 light with L38I, W61S, G94Y, V99W
notes: single-arm
The molecule B28 gave a Kd of 7.75 nM. Against the preceding molecule, the Kd is about 3.2-fold lower.

B29: TR01H040-E22Hh/none-Hi-Kn010G3/L0238-k0 (antibody, human IgG1, kappa, L234A L235A, N297A)
heavy: B1 heavy
chain: B1 chain
light: B1 light with Q27E, S28P, W61S, G94Y
notes: single-arm
The molecule B29 gave a Kd of 2.91 nM.

B30: TR01H040-E22Hh/none-Hi-Kn010G3/L0212-k0 (antibody, human IgG1, kappa, L234A L235A, N297A)
heavy: B1 heavy
chain: B1 chain
light: B1 light with S25P, W61S, G94Y
notes: single-arm
Molecule B30 registered a Kd of 2.17 nM.

B31: TR01H040-E22Hh/none-Hi-Kn010G3/L0232-k0 (antibody, human IgG1, kappa, L234A L235A, N297A)
heavy: B1 heavy
chain: B1 chain
light: B1 light with Q27E, P29L, W61S
notes: single-arm
Consider B31, for which binding was characterised by a dissociation constant (Kd) of 38.6 nM.

B32: TR01H040-E22Hh/none-Hi-Kn010G3/L0211-k0 (antibody, human IgG1, kappa, L234A L235A, N297A)
heavy: B1 heavy
chain: B1 chain
light: B1 light with S28P, W61S, G94Y
notes: single-arm
Regarding B32, the Kd came to 3.22 nM.

B33: TR01H040-E22Hh/none-Hi-Kn010G3/L0210-k0 (antibody, human IgG1, kappa, L234A L235A, N297A)
heavy: B1 heavy
chain: B1 chain
light: B1 light with N35W, W61S, G94Y
notes: single-arm
As to B33, the Kd is 5.06 nM.

B34: TR01H040-E22Hh/none-Hi-Kn010G3/L0218-k0 (antibody, human IgG1, kappa, L234A L235A, N297A)
heavy: B1 heavy
chain: B1 chain
light: B1 light with P29L, W61R, G94Y
notes: single-arm
B34 yielded an equilibrium dissociation constant (Kd) of 8.2 nM.
